The assay concerns the target T1, Nuclear receptor-related factor 1 (Nurr1) (mouse, UniProt Q06219 1-598).
T1 construct: Endogenous transcription factor in mouse ventral midbrain lysates (IP) or frozen tissue sections (PLA); not a recombinant construct; also called NR4A2
Description: reciprocal co-immunoprecipitation and Western blot, midbrain lysates of 10-week-old mice. As for the experimental part: Interaction between Nurr1 and Foxa2 (in mouse VM tissues at 10 weeks of age) was assessed by an IP. Tissues were lysed in IP lysis buffer (Thermo Scientific, Waltham, Mass.) supplemented with protease inhibitors. Lysates were incubated with an anti-Nurr1 antibody (1:1,000, mouse, R&D Systems) or an anti-Foxa2 antibody (1:1,000, goat, Santa Cruz Biotechnology) at 4° C. for 18-24 hours. The mixtures were shaken with magnetic beads (Life Technologies) at room temperature for 1-2 hours. After washing, immunoprecipitated proteins were eluted in a sample buffer and subjected to a Western blot analysis using an anti-Foxa2 antibody (1:1,000, goat, Cell Signaling Technology) or an anti-Nurr1 antibody (1:500, mouse, R&D Systems).
Close physical interaction of these two proteins was confirmed by an in situ proximity ligation assay (PLA), which allows visualization of protein-protein binding by red fluorescence (554 nm) emanating from two proteins in close proximity (FIG. 2E).

One molecule from patent US10555972 (INNOPEUTICS, dated 2020) can be followed below.

T1 sequence (Q06219 whole entry): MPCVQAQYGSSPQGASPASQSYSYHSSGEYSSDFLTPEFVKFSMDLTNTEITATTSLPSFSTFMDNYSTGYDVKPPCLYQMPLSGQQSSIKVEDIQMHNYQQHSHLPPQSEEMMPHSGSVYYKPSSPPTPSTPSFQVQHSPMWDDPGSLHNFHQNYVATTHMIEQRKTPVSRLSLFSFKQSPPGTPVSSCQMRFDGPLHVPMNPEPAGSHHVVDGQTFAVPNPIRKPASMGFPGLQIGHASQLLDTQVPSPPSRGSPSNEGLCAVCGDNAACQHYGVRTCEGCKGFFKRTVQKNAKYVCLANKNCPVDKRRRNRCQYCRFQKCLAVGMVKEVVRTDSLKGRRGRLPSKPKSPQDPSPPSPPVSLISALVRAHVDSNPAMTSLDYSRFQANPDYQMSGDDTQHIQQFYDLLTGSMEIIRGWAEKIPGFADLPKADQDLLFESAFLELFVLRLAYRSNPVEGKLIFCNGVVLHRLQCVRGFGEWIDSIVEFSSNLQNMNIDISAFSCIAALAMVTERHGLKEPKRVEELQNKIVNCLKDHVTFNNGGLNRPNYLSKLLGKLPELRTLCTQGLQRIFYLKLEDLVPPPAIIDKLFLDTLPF

B1: forkhead box protein A2 (Foxa2) (other, mouse, UniProt P35583 1-459, looked up)
chain: MLGAVKMEGHEPSDWSSYYAEPEGYSSVSNMNAGLGMNGMNTYMSMSAAAMGGGSGNMSAGSMNMSSYVGAGMSPSLAGMSPGAGAMAGMSGSAGAAGVAGMGPHLSPSLSPLGGQAAGAMGGLAPYANMNSMSPMYGQAGLSRARDPKTYRRSYTHAKPPYSYISLITMAIQQSPNKMLTLSEIYQWIMDLFPFYRQNQQRWQNSIRHSLSFNDCFLKVPRSPDKPGKGSFWTLHPDSGNMFENGCYLRRQKRFKCEKQLALKEAAGAASSGGKKTAPGSQASQAQLGEAAGSASETPAGTESPHSSASPCQEHKRGGLSELKGAPASALSPPEPAPSPGQQQQAAAHLLGPPHHPGLPPEAHLKPEHHYAFNHPFSINNLMSSEQQHHHSHHHHQPHKMDLKAYEQVMHYPGGYGSPMPGSLAMGPVTNKAGLDASPLAADTSYYQGVYSRPIMNSS
notes: Endogenous transcription factor in mouse ventral midbrain lysates (IP) or frozen tissue sections (PLA); not a recombinant construct
Consider B1, for which the binding result is recorded as “binds”.
